In publication PMC5523840:

Molecular target: T1, TFCP2 (LBP-1c/CP2/LSF) (UniProt Q12800 1-502)
T1 sequence: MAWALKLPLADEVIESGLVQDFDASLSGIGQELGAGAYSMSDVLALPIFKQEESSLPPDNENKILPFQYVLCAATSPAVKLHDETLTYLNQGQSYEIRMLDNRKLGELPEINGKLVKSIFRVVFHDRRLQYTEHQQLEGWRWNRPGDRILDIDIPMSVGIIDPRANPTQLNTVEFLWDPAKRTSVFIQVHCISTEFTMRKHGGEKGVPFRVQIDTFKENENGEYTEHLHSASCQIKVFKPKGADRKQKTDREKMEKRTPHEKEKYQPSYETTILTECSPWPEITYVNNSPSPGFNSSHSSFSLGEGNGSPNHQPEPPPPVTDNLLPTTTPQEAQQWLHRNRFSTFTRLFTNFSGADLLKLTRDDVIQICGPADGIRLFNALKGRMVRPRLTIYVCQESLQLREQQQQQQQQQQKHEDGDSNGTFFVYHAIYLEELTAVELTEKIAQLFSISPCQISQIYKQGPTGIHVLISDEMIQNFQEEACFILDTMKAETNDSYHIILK
Test: EMSA

B1: rs2830077[A] (dsDNA)
DNA 1: GACACGCTGACTTCCAGGCAAAAGCCAGGCACAAGAGAAGC
DNA 2: GCTTCTCTTGTGCCTGGCTTTTGCCTGGAAGTCAGCGTGTC
With B1 as the binder, how does the binding signal read?
Its binding signal is 1 fold band intensity (reference for the C allele, 46% greater).
